Patent publication US10357539B2, “Use of peptides that block metadherin-SND1 interaction as treatment for cancer” (THE TRUSTEES OF PRINCETON UNIVERSITY, priority 2014, dated 2019)
Where a chain is given by its changes, count along the chain named. Numbers in names are those of the source. Entries after “also recorded” stand apart in the source; their conditions may differ.

T1: MTDH-SND1 interaction (Homo sapiens, UniProt Q7KZF4)
T1 construct: Full-length HA-tagged SND1 was co-expressed with full-length Myc-tagged wild-type (WT) or mutant MTDH in HEK293T cells; expressed in transfected cells; host or cells: 293T
T1 sequence (Q7KZF4 1-910): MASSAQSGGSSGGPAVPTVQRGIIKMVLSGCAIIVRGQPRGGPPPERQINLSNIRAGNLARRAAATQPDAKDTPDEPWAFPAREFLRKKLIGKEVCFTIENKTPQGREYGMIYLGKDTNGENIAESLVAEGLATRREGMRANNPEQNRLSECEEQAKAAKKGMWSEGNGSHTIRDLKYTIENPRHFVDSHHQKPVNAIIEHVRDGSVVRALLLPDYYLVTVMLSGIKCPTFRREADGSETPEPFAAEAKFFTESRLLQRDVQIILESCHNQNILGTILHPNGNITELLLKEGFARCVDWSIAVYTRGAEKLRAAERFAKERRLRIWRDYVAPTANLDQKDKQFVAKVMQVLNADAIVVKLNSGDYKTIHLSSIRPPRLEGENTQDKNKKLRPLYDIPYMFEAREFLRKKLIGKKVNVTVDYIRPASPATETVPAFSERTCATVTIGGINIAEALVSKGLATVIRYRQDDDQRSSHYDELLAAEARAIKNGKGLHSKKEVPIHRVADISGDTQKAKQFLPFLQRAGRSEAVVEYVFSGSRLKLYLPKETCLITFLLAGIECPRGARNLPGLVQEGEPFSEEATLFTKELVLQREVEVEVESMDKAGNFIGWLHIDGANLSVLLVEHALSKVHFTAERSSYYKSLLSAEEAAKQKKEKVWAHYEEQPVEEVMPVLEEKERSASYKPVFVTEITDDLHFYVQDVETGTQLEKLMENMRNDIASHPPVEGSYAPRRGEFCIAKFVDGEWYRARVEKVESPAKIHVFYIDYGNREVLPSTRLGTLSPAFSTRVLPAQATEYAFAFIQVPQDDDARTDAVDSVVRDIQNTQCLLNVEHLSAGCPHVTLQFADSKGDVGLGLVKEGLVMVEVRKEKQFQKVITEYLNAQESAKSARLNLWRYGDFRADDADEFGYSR

T2: SND1 (Homo sapiens, UniProt Q7KZF4)
T2 construct: Full-length HA-tagged SND1 was co-expressed with full-length Myc-tagged wild-type (WT) or mutant MTDH in HEK293T cells; expressed in transfected cells; host or cells: HEK293T
T2 sequence (Q7KZF4 1-910): T1 sequence (Q7KZF4 1-910)

T3: SND1 (Homo sapiens, UniProt Q7KZF4)
T3 construct: 15 μg of His-SND1 (16-339) was added to the resin; made in house; host or cells: E. coli DH5α
T3 sequence (Q7KZF4 1-339): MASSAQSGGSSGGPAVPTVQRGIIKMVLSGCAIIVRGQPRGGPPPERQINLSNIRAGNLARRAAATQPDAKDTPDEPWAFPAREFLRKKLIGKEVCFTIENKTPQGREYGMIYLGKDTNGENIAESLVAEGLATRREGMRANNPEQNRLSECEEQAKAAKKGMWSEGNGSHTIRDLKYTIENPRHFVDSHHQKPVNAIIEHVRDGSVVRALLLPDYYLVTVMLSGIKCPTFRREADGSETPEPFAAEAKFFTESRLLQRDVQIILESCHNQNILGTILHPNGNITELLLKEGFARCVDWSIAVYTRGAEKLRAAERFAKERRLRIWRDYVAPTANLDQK

B1: TPM1: MTDH triple-point mutant D389R, D393R and W394D (protein)
chain: YQWDVSRNQPYIDDEWSGLNGLSSARPNSRDNAPAEEWGNWVDEERASLLKSQEPIPDDQKVSDDDKEKGEGALPTGKSKKKKKKKKKQGEDNSTAQDTEELEKEIREDLPVNTSKTRPKQEKAFSLKTISTSDPAEVLVKNSQPIKTLPPATSTEPSVILSKSDSDKSSSQVPPILQETDKSKSNTKQNSVPPSQTKSETSWESPKQIKKKKKARRET
modifications: left off: a dimerising Fc or GST
notes: MTDH triple-point mutant D389R, D393R and W394D
B2: TPM2: MTDH triple-point mutant E399R, E400R and W401D (protein)
chain: B1 chain with R26D, R30D, D31W, E36R, E37R, W38D
modifications: left off: a dimerising Fc or GST
notes: MTDH triple-point mutant E399R, E400R and W401D

Key:
MTDH-SND1 interaction = biological target: T1, MTDH-SND1 interaction; experiment: Immunoprecipitation assay: elution or co-incubation with MTDH peptides, western blot; type: biochemical; details: 50 uM of peptides; IP of HA-SND1 from 293T (HA-SND1 + MYC-MTDH) and of endogenous SND1 from MDA-MB-231
Experimental: 293T cells co-transfected with HA-SND1 and MYC-MTDH. After 48 hr cells were collected and subjected to IP assay. (FIG. 26A, FIG. 26B) Cell lysate was incubated with anti-HA antibody or IgG overnight followed by 2 hr incubation with Protein A/G beads to pull down HA-SND1 protein. The beads was washed with lysis buffer and split into 5 fractions. Each fraction was eluted with buffer or indicated peptides for 30 min. The elution fractions and beads were collected for WB. (FIG. 26C, FIG. 26D) Cell lyaste was split into 6 fractions, one of them was incubated with IgG and the rest were incubated with anti-HA antibody plus either buffer or indicated peptides. After 24 hr, the lysate was incubated with Protein A/G beads then the beads were washed in wash buffer.
Breast cancer cells MDA-MB231 were collected and subjected to IP assay. (FIG. 27A) Cell lysate was incubated with anti-SND1 antibody or IgG overnight followed by 2 hr incubation with Protein A/G beads to pull down endogenous SND1 protein. The beads were washed with lysis buffer and split into 5 fractions. Each fraction was eluted with buffer or indicated peptides for 30 min. The elution fractions and beads were collected for WB. (FIG. 27B) Cell lyaste was split into 5 fractions, and incubated with anti-SND1 antibody plus either buffer or indicated peptides. After 24 hr, the lysate was incubated with Protein A/G beads then the beads were washed in wash buffer.
293 T cells were co-transfected with HA-SND1 and MYC-MTDH. After 48 hours, the cells were collected and subject to immunoprecipitation assay. Cell lysate was incubated with anti-HA antibody or IgG overnight followed by a two hour incubation with Protein A/G beads to pull down HA-SND1 protein. The beads were washed with lysis buffer and split into five fractions. Each fraction was eluted with buffer or indicated peptides (i.e., Peptide—wt (PNSDWNAPAEEWGNW, SEQ ID NO: 16); Peptide-394A (PNSDANAPAEEWGNW, SEQ ID NO: 17); Peptide-401A (PNSDWNAPAEEAGNW, SEQ ID NO: 18) and Peptide-MT (PNSDANAPAEEAGNW, SEQ ID NO: 19) for 30 minutes.
The elution fractions and beads were collected for western blot. (FIGS. 26C and 26D) Cell lyaste was split into 6 fractions. One of the fractions was incubated with IgG and the rest were incubated with anti-HA antibody plus either buffer or indicated peptides. After 24 hours, the lysate was incubated with Protein A/G beads then the beads was washed followed by wash buffer. 50 uM of peptides was used in all the assays.
The interaction interruption effects was confirmed by endogenous immunoprecipitation (IP) of a breast cancer cell line. Briefly, cell lysates from the breast cancer cell line MDA-MB-231 were collected and subjected to IP assay. […]

SND1 [1] = biological target: T2, SND1; experiment: Co-immunoprecipitation of full-length Myc-MTDH (WT or mutant) and HA-SND1 in HEK293T cells; type: cell-based; details: HEK293T cell lysates, immunoprecipitation and immunoblot
Excerpt: (§1) FIGS. 7A-E represents determination of key regions and residues mediating the MTDH-SND1 interaction. (FIG. 7A) Schematics of MTDH fragments and mutants with indicated SND1-binding capability. + indicates binding and − indicates no binding based on results shown below. Two putative nuclear localization signals are residues 432-451 for NLS2 and residues 561-580 for NLS3. In the enlarged view of the minimal binding region 386-407, 9 residues were targeted for mutagenesis in the current study. […] (FIG. 7B) Pulldown of His6-SND1AC by GST-tagged MTDH fragments with indicated boundaries. The bound proteins were examined by SDS-PAGE and visualized by Coomassie blue staining. (FIG. 7C) Pulldown of His6-SND1ΔC by GST-tagged WT or triple mutant MTDH fragments (364-582). For (FIG. 7B) and (FIG. 7C), 1/10 of the His6-SND1ΔC input was shown, and GST alone was used as a negative control. Representative results of 3 independent experiments are shown. (FIG. 7D, FIG. 7E) Lysates from HEK293T cells expressing the indicated ectopic human SND1, AGO2 or MTDH were immunoprecipitated with anti-Myc and immunoblotted with the indicated antibodies.
(FIG. 22A) In vitro pull-down of SND1 (16-339) by GST-tagged MTDH (364-582) harboring WT or mutant sequence. The proteins bound to GS4B were examined on SDS-PAGE and visualized by Coomassie blue staining. (FIG. 22B) In vitro pull-down of WT and mutant SND1 (16-339) by GST-tagged MTDH (364-582). The bound proteins were examined as in (FIG. 22A). For both (FIG. 22A) and (FIG. 22B), experiments were repeated three times; representative results are shown. The normalized percentage of binding was averaged from three experiments; mean±SEM was shown below the data. (FIG. 22C) HEK293T cells were transfected with human HA-SND1, WT Myc-MTDH or Myc-MTDH with indicated single point mutation. Lysates were immunoprecipitated with anti-Myc antibody and immunoblotted with the indicated antibodies. (FIG. 22D) HEK293T cells were transfected with human Myc-MTDH, WT HA-SND1 or mutant HA-SND1 with indicated single point mutations or deletions. Lysates were immunoprecipitated with anti-Myc and immunoblotted with the indicated antibodies.
Immunoprecipitation and western blot For immunoprecipitation (IP) experiments, cultured cells were washed in cold PBS and lysed in lysis buffer (20 mM Tris pH 7.4, 0.15 M NaCl, 1 mM EDTA, 1 mM EGTA, 1% Tx-100, 0.0025 M Na2P2O7, 1 mM α-glycerolphosphate, 1 mM Na3VO4, and 1 mM NaF) with an EDTA-free protease inhibitor mixture (Roche Applied Science) and PMSF. Cell lysates were then incubated on ice for 10 min, centrifuged, and precleared by incubating with protein A/G beads (Santa Cruz Biotechnology) for 1 h at 4° C. For IP bead preparation, 30 μl of protein A/G beads were incubated with 5 μg of antibodies for 2 h at 4° C. IPs were carried out for overnight at 4° C., and beads were centrifuged, washed and subsequently boiled for 5 min in SDS protein loading buffer to elute bound protein. IP lysates were subjected to western blotting with indicated antibodies.
Immunoprecipitation and western blot: For in vivo immunoprecipitation (IP) experiments, cultured cells were washed in cold PBS and lysed in lysis buffer (20 mM Tris pH 7.4, 0.15 M NaCl, 1 mM EDTA, 1 mM EGTA, 1% Tx-100, 0.0025 M Na2P2O7, 1 mM β-glycerolphosphate, 1 mM Na3VO4, and 1 mM NaF) with an EDTA-free protease inhibitor mixture (Roche Applied Science) and PMSF. Cell lysates were then incubated on ice for 10 min, centrifuged, and precleared by incubating with protein A/G beads (Santa Cruz Biotechnology) for 1 h at 4° C. For IP bead preparation, 30 μl of protein A/G beads were incubated with 5 μg of antibodies for 2 h at 4° C. IPs were carried out for overnight at 4° C., and beads were centrifuged, washed and subsequently boiled for 5 min in SDS protein loading buffer to elute bound protein. IP lysates were subjected to western blotting with indicated antibodies.

SND1 [2] = biological target: T3, SND1; experiment: GST-mediated pull-down of SND1 by GST-tagged MTDH fragments and mutants; type: binding; details: His6-SND1ΔC (1-339); Coomassie blue staining
Method in brief: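 GST-MTDH fragments or mutants (~20 μg) on glutathione resin incubated with 15 μg His-SND1 (16-339) in 25 mM Tris pH 8.0, 150 mM NaCl, 3 mM DTT plus 2 mg/ml BSA. Bound protein resolved by SDS-PAGE, Coomassie-stained; bound SND1 ratio quantified by densitometry over 3 repeats.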

AGO2 = biological target: T4, AGO2 (Homo sapiens, UniProt Q9UKV8); experiment: Co-immunoprecipitation of Myc-MTDH mutants with AGO2 in HEK293T cells; type: cell-based; details: HEK293T cell lysates, anti-Myc immunoprecipitation
T4 construct: expressed in transfected cells; host or cells: HEK293T
Excerpt: as §1, with “antibodies. […]” for “antibodies.”

T4 sequence (Q9UKV8 whole entry): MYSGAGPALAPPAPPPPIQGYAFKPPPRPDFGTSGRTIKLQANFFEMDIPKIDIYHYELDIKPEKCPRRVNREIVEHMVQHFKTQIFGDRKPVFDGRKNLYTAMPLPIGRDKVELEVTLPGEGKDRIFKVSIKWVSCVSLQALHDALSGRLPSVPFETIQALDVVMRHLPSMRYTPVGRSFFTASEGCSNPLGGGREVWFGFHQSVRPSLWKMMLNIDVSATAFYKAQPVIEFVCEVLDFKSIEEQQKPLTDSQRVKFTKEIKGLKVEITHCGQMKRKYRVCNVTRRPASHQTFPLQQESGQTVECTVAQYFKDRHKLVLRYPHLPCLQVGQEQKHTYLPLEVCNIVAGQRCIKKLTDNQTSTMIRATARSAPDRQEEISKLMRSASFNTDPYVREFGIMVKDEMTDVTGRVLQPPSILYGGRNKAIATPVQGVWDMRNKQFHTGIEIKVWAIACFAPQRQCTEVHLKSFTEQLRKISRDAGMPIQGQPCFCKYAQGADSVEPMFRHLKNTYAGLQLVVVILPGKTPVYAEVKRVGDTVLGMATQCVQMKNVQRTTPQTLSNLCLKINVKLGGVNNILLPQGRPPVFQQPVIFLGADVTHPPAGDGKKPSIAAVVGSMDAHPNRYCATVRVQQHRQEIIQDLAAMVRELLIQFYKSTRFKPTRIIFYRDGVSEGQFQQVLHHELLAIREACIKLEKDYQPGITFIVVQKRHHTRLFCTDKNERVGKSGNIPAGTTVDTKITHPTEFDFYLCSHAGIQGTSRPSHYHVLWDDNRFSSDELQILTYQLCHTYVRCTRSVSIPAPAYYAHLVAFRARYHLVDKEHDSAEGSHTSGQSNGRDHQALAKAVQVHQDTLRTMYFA

Row | Molecule | block of MTDH-SND1 interaction by peptide (MTDH-SND1 interaction) | interaction of full-length MTDH (WT or mutant) with HA-SND1 (SND1 [1]) | SND1-binding of MTDH fragments and triple mutants, in vitro (SND1 [2]) | interaction of MTDH mutants with AGO2 (AGO2)
1 | PNSDANAPAEEWGNW (listed as Homo sapiens) [single point mutation W394A] | have no effect in interrupting the interaction of MTDH with SND1 | – | – | –
2 | PNSDANAPAEEAGNW (listed as Homo sapiens) [double point mutation] | have no effect in interrupting the interaction of MTDH with SND1 | – | – | –
3 | PNSDWNAPAEEWGNW (listed as Homo sapiens) [wild type MTDH peptide] | can effectively block MTDH-SND1 interaction; also recorded: significant block MTDH-SND1 interaction | – | – | –
4 | B1 | – | not | could not bind | still able to interact with AGO2
5 | B2 | – | not | could not bind | still able to interact with AGO2
